We go through 16 molecules from patent US20180030137A1 (ADURO BIOTECH HOLDINGS EUROPE B V, published 2018).

Numbering of substitutions follows the chain as printed. In names and notes the source's numbering stands. Like-named read-outs stand apart in the source and are kept apart here.

For test [1], the target named is T1, Human PD-1 (Swiss-Prot entry Q15116), full length, on cells (human, UniProt Q15116 21-288).
T1 construct: Full length open reading frame of hPD-1 stably expressed on CHO-K1 cells; also endogenous PD-1 on CD3/CD28-stimulated human CD3+ T cells and PD-1 on transfected Jurkat cells; also called hPD-1; hPDCD1
Description: CELISA on CHO-K1.hPDCD1 cells; blocking of biotinylated hPD-L1 Fc. Here is the method: (§1) To further characterize these mutant hPD-1 antibodies they were tested for binding to hPD-1 in CELISA format using CHO-K1 cells (American Type Culture Collection, Manassas, Va.), stably transfected with cDNA encoding the full length open reading frame of hPDCD1 (hPD-1), subcloned into the pCI-neo vector (Promega). Parental CHO-K1 or CHO-K1.hPDCD1 cells were seeded in culture medium (DMEM-F12 (Gibco) with 10% Fetal Bovine Serum (Hyclone) and Pen/Strep (Gibco)) in tissue culture plates and incubated for 48 hours at 37° C. Subsequently culture medium was removed and cells were incubated for 1 hour at 37° C. with the mutant hPD-1 antibodies (10 μg/ml (=66 nM) and dilutions thereof). Next, cells were washed with Phosphate-Buffered Saline/0.05% Tween (PBST) and incubated for 1 hour at 37° C. with Goat-anti-human IgG-HRP (Southern Biotech). Subsequently, cells were washed 3 times with PBST and anti-hPD1 immunoreactivity was visualized with 100 al TMB Stabilized Chromagen (Invitrogen). Reactions were stopped with 100 al 0.5 M H2SO4 and absorbances were read at 450 and 610 nm. […] Blockade of hPD-L1 binding by the mutant hPD-1 antibodies was tested in CELISA format. Parental CHO-K1 or CHO-K1.hPDCD1 cells were seeded in tissue culture plates and incubated for 72 hours at 37° C. in culture medium. Subsequently culture medium was removed and cells were incubated for 1 hour with the mutant hPD-1 antibodies (10 μg/ml (=66 nM) and dilutions thereof) at 37° C. […] Cells were then washed three times with PBST followed by addition of Streptavidin-HRP conjugate on the cells, which was incubated for 1 hour at 37° C. […] Reactions were stopped with 100 al 0.5 M H2SO4 and absorbances were read at 450 and 610 nm. Calculated IC50 values in Table 12 for the blockade of hPD-L1 represent the concentration at which half of the inhibition is observed.

Test [2] has as its target T1, Human PD-1 (Swiss-Prot entry Q15116), …. Description: CELISA on CHO-K1.hPDCD1 cells. Here is the method:
as §1

For test [3], the target named is T2, hPD-1/Fc fusion protein (R&D Systems) (human, UniProt Q15116 25-167).
T2 construct: Bought reagent; also called Recombinant hPD-1/Fc; not shown: Fc part of the bought fusion protein
Description: BLI competition: second antibody on hPD-1/Fc held by immobilised hPD1.29H5L4 (competitor: hPD1.29H5L4).

Test [4] deals with Human PD-1 (Swiss-Prot entry Q15116), full length, on cells (human) (UniProt Q15116). Description: CELISA on CHO-K1.hPDCD1 cells.
The target is the same in test [5]. Description: CELISA on CHO-K1.hPDCD1 cells; blocking of biotinylated hPD-L2 Fc.
Test [6] concerns the target T2, hPD-1/Fc fusion protein (R&D Systems). Briefly: BLI (Octet RED96), hPD-1/Fc amine-coupled, IgG in solution, 1:1 global fit. The method, then: This assay was, performed by coupling hPD-1/Fc fusion protein (R&D Systems) to amine-reactive second generation biosensors (Fortebio) using standard amine chemistry. […] Amine-reactive biosensors were pre-wet by immersing them in wells containing 0.1M MES pH=5.5 for 10 minutes. The biosensors were then activated using a 0.1M NHS/0.4M EDC mixture for 5 minutes. hPD-1/Fc fusion protein was coupled by immersing the biosensors in a solution of 12 ug/mL hPD-1/Fc in 0.1 M MES for 7.5 minutes. The biosensor surface was quenched using a solution of 1M ethanolamine for 5 minutes. Biosensors were equilibrated in Octet kinetics buffer (ForteBio) for 5 minutes. […] Dissociation was measured after transfer of the biosensors into kinetics buffer and monitoring of the interferometry signal for 45 minutes. The assay was run with a plate temperature of 30° C. The observed on and off rates (kobs and kd) were fit using a 1:1 binding global fit model comprising all concentrations tested, and the equilibrium binding constant KD was calculated.
For orientation: In BLI a coated tip is dipped into the sample, and binding shifts an interference pattern.

Test [7] concerns the target Human PD-1 (Swiss-Prot entry Q15116), full length, on cells (human) (UniProt Q15116).
The target is the same in test [8]. Briefly: CELISA on CHO-K1.hPDCD1 cells; blocking of biotinylated hPD-L1 Fc.
For test [9], the target named is T1, Human PD-1 (Swiss-Prot entry Q15116), …. Description: cell-based or functional assay.
Test [10] has the same target. Briefly: CELISA on CHO-K1.hPDCD1 cells; blocking of biotinylated hPD-L1 Fc. Here is the method:
(§2) To further characterize these mutant hPD-1 antibodies they were tested for binding to hPD-1 in CELISA format using CHO-K1 cells (American Type Culture Collection, Manassas, Va.), stably transfected with cDNA encoding the full length open reading frame of hPDCD1 (hPD-1), subcloned into the pCI-neo vector (Promega). Parental CHO-K1 or CHO-K1.hPDCD1 cells were seeded in culture medium (DMEM-F12 (Gibco) with 10% Fetal Bovine Serum (Hyclone) and Pen/Strep (Gibco)) in tissue culture plates and incubated for 48 hours at 37° C. Subsequently culture medium was removed and cells were incubated for 1 hour at 37° C. with the mutant hPD-1 antibodies (10 μg/ml (=66 nM) and dilutions thereof). Next, cells were washed with Phosphate-Buffered Saline/0.05% Tween (PBST) and incubated for 1 hour at 37° C. with Goat-anti-human IgG-HRP (Southern Biotech). Subsequently, cells were washed 3 times with PBST and anti-hPD1 immunoreactivity was visualized with 100 al TMB Stabilized Chromagen (Invitrogen). Reactions were stopped with 100 al 0.5 M H2SO4 and absorbances were read at 450 and 610 nm. […] Blockade of hPD-L1 binding by the mutant hPD-1 antibodies was tested in CELISA format. […] Reactions were stopped with 100 al 0.5 M H2SO4 and absorbances were read at 450 and 610 nm. Calculated IC50 values in Table 12 for the blockade of hPD-L1 represent the concentration at which half of the inhibition is observed.
This is another data set of the same source.

Test [11] has the same target. Briefly: CELISA on CHO-K1.hPDCD1 cells. Here is the method:
as §2
This is another data set of the same source.

For test [12] the target is unchanged. Description: CELISA on CHO-K1.hPDCD1 cells; blocking of biotinylated hPD-L2 Fc. The method, then:
Parental CHO-K1 or CHO-K1.hPDCD1 cells were seeded in tissue culture plates and incubated for 72 hours at 37° C. in culture medium. […] Cells were then washed three times with PBST followed by addition of Streptavidin-HRP conjugate on the cells, which was incubated for 1 hour at 37° C. […] Reactions were stopped with 100 al 0.5 M H₂SO₄ and absorbances were read at 450 and 610 nm. […] Calculated IC50 values represent the concentration at which half of the inhibition is observed.

T2 sequence (Q15116 25-167 limits assumed): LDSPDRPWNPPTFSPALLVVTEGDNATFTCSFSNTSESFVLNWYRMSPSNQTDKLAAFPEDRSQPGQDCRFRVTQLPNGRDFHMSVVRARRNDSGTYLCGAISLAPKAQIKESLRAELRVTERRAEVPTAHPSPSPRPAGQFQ
Human PD-1 (Swiss-Prot entry Q15116), full length, on cells (human), sequence (Q15116 21-288): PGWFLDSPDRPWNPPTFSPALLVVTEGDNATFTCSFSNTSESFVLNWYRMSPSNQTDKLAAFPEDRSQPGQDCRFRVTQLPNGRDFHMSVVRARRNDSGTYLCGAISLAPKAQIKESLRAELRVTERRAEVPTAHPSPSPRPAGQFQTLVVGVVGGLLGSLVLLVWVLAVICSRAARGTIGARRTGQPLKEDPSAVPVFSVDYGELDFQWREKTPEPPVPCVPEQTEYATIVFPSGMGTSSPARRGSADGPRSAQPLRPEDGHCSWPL
T1 sequence (Q15116 21-288): as above

B1: hPD1.29H5_A9P_I28T_T31S_L4 (antibody, V domains shown)
VH: EVQLVQSGPEVKKPGASVKVSCKASGYTFTSYYIHWVKQAPGKGLEWIGWIFPGDVSTQYNEKFQDKATITVDKSASTAYMQLSSLRSEDTAVYYCTREAYDYAVYWGQGTLVTVSS
VL: DIQMTQAPSSLSASVGDRVTITCKASQNVDTNVAWFQQKPGKAPKSLIFSASYRYSGVPSRFSGSGSGTDFTLTISSLQPEDFATYYCQQYNNYPFTFGGGTKLEIK
notes: Mutant of hPD1.29H5L4 (human IgG4 S241P kappa format of the parent)
As to B1, inhibition in [1] was half-maximal at 1.2 nM (IC50). The response in test [2] was half-maximal at 0.3 nM (EC50).

B2: hPD1.29H5_K12V_L4 (antibody, V domains shown)
VH: B1 VH with P9A, K12V, T28I, S31T
VL: B1 VL
notes: as for B1
In test [1], B2 came in with an IC50 of 1.4 nM. The molecule also returned an EC50 in [2] of 0.4 nM.

B3: hPD1.29H5_A9P_K12V_I28T_T31S_L4 (antibody, V domains shown)
VH: B1 VH with K12V
VL: B1 VL
notes: as for B1
As for B3, half-maximal inhibition in test [1] (IC50) was put at 1.2 nM. Moreover, the EC50 in [2] was 0.3 nM.

B4: hPD1.29H5_A9P_K12V_L4 (antibody, V domains shown)
VH: B1 VH with K12V, T28I, S31T
VL: B1 VL
notes: as for B1
In turn, B4 showed an IC50 in test [1] of 1.3 nM. The EC50 in [2] came out at 0.4 nM.

B5: hPD1.29H5_Y32D_L4 (antibody, V domains shown)
VH: B1 VH with P9A, T28I, S31T, Y32D
VL: B1 VL
notes: IgG4 S241P kappa format of the parent
With B5, in test [1], the half-maximal inhibitory concentration (IC50) worked out at 1.4 nM. The molecule also yielded an EC50 in test [2] of 0.3 nM.

B6: hPD1.29H5_T30D_L4 (antibody, V domains shown)
VH: B1 VH with P9A, T28I, T30D, S31T
VL: B1 VL
notes: as for B1
B6: the IC50 in test [1] is 1.6 nM. Besides, the EC50 in test [2] was determined as 0.3 nM.

B7: hPD1.29H5_I28D_T31D_L4 (antibody, V domains shown)
VH: B1 VH with P9A, T28D, S31D
VL: B1 VL
notes: as for B1
As for B7, in test [1], the IC50 worked out at 1.4 nM. For the same molecule, the midpoint of the response in [2], the EC50, lay at 0.4 nM.

B8: hPD1.29H5_I28D_T30D_L4 (antibody, V domains shown)
VH: B1 VH with P9A, T28D, T30D, S31T
VL: B1 VL
notes: as for B1
Consider B8, for which the midpoint of inhibition in test [1], the IC50, lay at 1.6 nM. This molecule also gave an EC50 in test [2] of 0.4 nM.

B9: hPD1.29H5_T31D_L4 (antibody, V domains shown)
VH: B1 VH with P9A, T28I, S31D
VL: B1 VL
notes: as for B1
Consider B9, for which the midpoint of inhibition in test [1], the IC50, lay at 1.7 nM. A half-maximal effect in test [2] (EC50) was put at 0.4 nM.

B10: hPD1.29H5_I28T_T31S_L4 (antibody, V domains shown)
VH: B1 VH with P9A
VL: B1 VL
notes: as for B1
As to B10, the IC50 in test [1] came out at 1.1 nM. A half-maximal effect in test [2] (EC50) was put at 0.3 nM.

B11: hPD1.29H5_I28D_Y32D_L4 (antibody, V domains shown)
VH: B1 VH with P9A, T28D, S31T, Y32D
VL: B1 VL
notes: as for B5
The molecule B11 displayed an IC50 in test [1] of 1.3 nM. In addition, a half-maximal effect in test [2] (EC50) was put at 0.4 nM.

B12: hPD1.29H5_K12V_I28T_T31S_L4 (antibody, V domains shown)
VH: B1 VH with P9A, K12V
VL: B1 VL
notes: as for B1
Molecule B12 registered a 50% inhibitory concentration (IC50) in test [1] of 1.2 nM. In test [2], this molecule had an EC50 of 0.3 nM.

B13: hPD1.29H5_I28D_L4 (antibody, V domains shown)
VH: B1 VH with P9A, T28D, S31T
VL: B1 VL
notes: as for B1
In [1], B13 returned an IC50 of 1.6 nM. For the same molecule, the EC50 in test [2] worked out at 0.3 nM.

B14: hPD1.29H5_A9P_L4 (antibody, V domains shown)
VH: B1 VH with T28I, S31T
VL: B1 VL
notes: as for B1
As to B14, in test [1], the IC50 worked out at 1.4 nM. This molecule had an EC50 in test [2] of 0.4 nM.

B15: H4H7798N (antibody, from another filing, human IgG4, V domains shown)
VH: EVQLLESGGVLVQPGGSLRLSCAASGFTFSNFGMTWVRQAPGKGLEWVSGISGGGRDTYFADSVKGRFTISRDNSKNTLYLQMNSLKGEDTAVYYCVKWGNIYFDYWGQGTLVTVSS
VL: DIQMTQSPSSLSASVGDSITITCRASLSINTFLNWYQQKPGKAPNLLIYAASSLHGGVPSRFSGSGSGTDFTLTIRTLQPEDFATYYCQQSSNTPFTFGPGTVVDFRR
B15 had a Binding (nm) in test [3] of 0.014 nm. This molecule returned an EC50 in test [4] of 0.1 nM. In test [5], this molecule came in with an IC50 of 0.57 nM. Also, in [6], the Kd was 0.011 nM, the koff came out at 1.2e-05 s⁻¹ and the kon was 1.1e+06 M⁻¹ s⁻¹. In test [7], the IC50; NFAT-luciferase signal (RLU) of Jurkat cells expressing human PD-1, with CHO cells expressing hPD-L1 amounted to 7.27 nM. This molecule showed an IC50 in [8] of 0.45 nM.

B16: 5C4 (antibody, V domains shown)
VH: QVQLVQSGAEVKKPGSSVKVSCKASGFTFTTYYISWVRQAPGQGLEYLGYINMGSGGTNYNEKFKGRVTITADKSTSTAYMELSSLRSEDTAVYYCAILGYFDYWGQGTMVTVSS
VL: DVVMTQSPLSLPVTLGQPASISCRSSQSLLDSDGQTYLYWFQQRPGQSPRRLIYLVSTLGSGVPDRFSGSGSGTDFTLKISRVEAEDVGVYYCMQLTHEPYTFGQGTKLEIK
Turning to B16, the “IC50; NFAT-luciferase signal (RLU) of Jurkat cells expressing human PD-1, with CHO cells expressing hPD-L1” value in [9] stood at 5.79 nM. In [6], this molecule returned a Kd of 0.014 nM, a koff of 2.9e-05 s⁻¹ and a kon of 2.1e+06 M⁻¹ s⁻¹. The molecule further gave an IC50 in test [10] of 0.49 nM. The molecule further displayed an EC50 in [11] of 0.08 nM. In [12], this molecule displayed an IC50 of 0.58 nM.

In general, IC50 refers to the concentration that inhibits the measured activity by half. The low end stands for higher potency, the high end for lower potency. Usually EC50 stands for the midpoint of the concentration-response curve. High values mean weaker potency, low ones greater potency. As usually defined, the Kd is a measure of binding affinity in units of concentration. A high value points to lower affinity. For orientation: koff means the rate constant with which the complex falls apart. A word on the kon: it is the second-order rate constant of association. High values mean faster complex formation, low ones slower complex formation.
